Legend:
[1] = target: T1, human FLT3L on the cell surface (human, UniProt P49771 27-235); assay: flow cytometry on CHO cells expressing full-length human FLT3L, PE anti-hu IgG; CHO cells transfected with full-length human FLT3L; maximum occupancy relative to FLT3-Fc
T1 construct: whole, on cells; The assay field of each row says which cells carried it; also called cell-surface FLT3L; huFLT3L-expressing CHO cells
T1 sequence (looked up): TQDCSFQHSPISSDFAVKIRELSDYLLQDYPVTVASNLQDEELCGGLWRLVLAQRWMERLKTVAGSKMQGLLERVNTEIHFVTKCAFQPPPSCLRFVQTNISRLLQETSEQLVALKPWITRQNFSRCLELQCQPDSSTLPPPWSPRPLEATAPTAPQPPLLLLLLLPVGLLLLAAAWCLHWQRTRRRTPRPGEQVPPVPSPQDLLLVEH
Description: (§1) Consistent with this, cell surface binding to human, cyno, and mouse FLT3L was evaluated by transfecting Chinese hamster ovary (CHO) cells with the respective full-length protein for each species. Candidate clones were incubated with FLT3L-expressing cell lines for 1 hour at 4° C. before being washed twice to remove unbound antibody. Cells were then incubated with PE-labeled goat anti-hu IgG secondary detection pAb to quantitate bound antibody which was measured by flow cytometric analysis of PE signal. The huFLT3-Fc construct, on a hu IgG backbone, was used as a positive control reagent for FLT3L expression as it cross reacts with cyno and mouse, in addition to human ligand.
(§2) As differences were apparent in the degree of receptor occupancy for each clone, both EC50 and max occupancy were noted (expressed as percent relative to FLT3-Fc) and taken into account in the final evaluation. Results are shown in Table 4 for human, cyno, and mouse FLT3L expressed in CHO cells.

[2] = target: T1, human FLT3L on the cell surface; assay: flow cytometry on CHO cells expressing full-length human FLT3L, PE anti-hu IgG; CHO cells transfected with full-length human FLT3L, PE anti-hu IgG
Description: as §1, §2

mouse soluble FLT3L = target: T2, mouse soluble FLT3L (mouse, UniProt P49772 27-189); assay: inhibition of FLT3 downregulation on RS4;11 cells by soluble mouse FLT3L (N/A in Table 3)
T2 construct: extracellular domain; also called mouse sFLT3L; muFLT3L
T2 sequence (looked up): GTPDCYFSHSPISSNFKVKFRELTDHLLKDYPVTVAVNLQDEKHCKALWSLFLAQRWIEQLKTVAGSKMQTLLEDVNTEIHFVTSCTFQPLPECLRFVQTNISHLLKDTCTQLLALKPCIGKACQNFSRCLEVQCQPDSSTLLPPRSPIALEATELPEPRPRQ
Description: Screening assay conditions were further refined to determine ideal cell culture conditions for evaluating anti-FLT3L candidate clones. Final conditions were: 50,000 RS4;11 cells per well incubated with 96 pM rhuFLT3L with or without anti-FLT3L mAb candidate clones in complete Roswell Park Memorial Institute (RPMI) media with one percent bovine serum albumin (BSA) for 2 hours in an humidified incubator set at 37° C., 5% CO2. Subsequent downregulation of FLT3 expression was determined by flow cytometry as measured either as raw MFI or % downregulation. […] (FIG. 3A). Assay efficacy was confirmed using a commercially available mouse anti-huFLT3L antibody control (MAB608, R&D Systems) (FIG. 3B). Due to the cross-species reactivity of FLT3 with its ligand, this assay was effective for testing clones against human, cyno, and rodent FLT3L, despite being a human cell line. For mouse FLT3L, the EC80 was 36 pM.
Upon ligation of FLT3L to FLT3, the receptor dimerizes, autophosphorylates, and propagates a signaling cascade once internalized. This process, measured by FLT3 downregulation, can be inhibited by antibodies that bind FLT3L. Thus, lead candidates were tested for their ability to inhibit FLT3 downregulation on RS4;11 cells by binding human, mouse, or cynomolgus monkey (cyno) soluble FLT3L (sFLT3L). […] FLT3 expression on RS4;11 cells was determined using flow cytometry and reported as MFI.

[3] = target: T3, human soluble FLT3L (recombinant huFLT3L) (human, UniProt P49771 27-184); assay: cell-based or functional assay
T3 sequence (looked up): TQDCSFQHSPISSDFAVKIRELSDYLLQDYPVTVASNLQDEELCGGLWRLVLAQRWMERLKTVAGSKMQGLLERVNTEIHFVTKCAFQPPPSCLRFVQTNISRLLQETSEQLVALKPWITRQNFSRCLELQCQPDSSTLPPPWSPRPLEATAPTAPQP

[4] = target: T4, cynomolgus monkey FLT3L on CHO cells (cynomolgus monkey); assay: flow cytometry on CHO cells expressing full-length cyno FLT3L, PE anti-hu IgG
T4 construct: whole, on cells; also called cell surface cyno FLT3L
Description: as §1, §2

[5] = target: T5, recombinant human colony stimulating factor 1 (CSF1) (human, UniProt P09603 33-190, limits assumed); assay: ELISA on coated recombinant human CSF1
T5 construct: also called huCSF1; huCSF
T5 sequence (looked up): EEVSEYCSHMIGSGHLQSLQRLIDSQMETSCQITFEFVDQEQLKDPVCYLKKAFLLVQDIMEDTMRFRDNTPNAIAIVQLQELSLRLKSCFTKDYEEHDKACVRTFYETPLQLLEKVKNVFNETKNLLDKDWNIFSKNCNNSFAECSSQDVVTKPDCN
Description: (§3) To test this, an ELISA plate was coated with 2 µg of recombinant human SCF or CSF1. After washing, the plate was blocked with 3% milk in Tris-Phosphate Buffered Saline (TPBS) and lead antibodies were added in serial (×2) dilution, starting at 50 µg/ml. After incubation, unbound antibody was removed by washing and bound antibody was detected using anti-human IgG-HRP in combination with TMB substrate for color development. Commercially available goat anti-SCF pAb and mouse anti-CSF1 mAb were used as positive binding controls.

mouse FLT3L on CHO cells = target: T6, mouse FLT3L on CHO cells (mouse, UniProt P49772 27-232); assay: flow cytometry on CHO cells expressing mouse FLT3L, anti-hu IgG-PE detection
T6 construct: whole, on cells; also called cell surface mouse FLT3L
T6 sequence (looked up): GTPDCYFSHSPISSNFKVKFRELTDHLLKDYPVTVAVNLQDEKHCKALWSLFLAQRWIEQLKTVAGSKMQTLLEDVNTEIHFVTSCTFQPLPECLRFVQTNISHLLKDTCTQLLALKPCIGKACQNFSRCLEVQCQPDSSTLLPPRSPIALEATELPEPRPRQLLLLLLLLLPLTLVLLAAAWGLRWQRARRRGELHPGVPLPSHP
Description: as §1

[6] = target: T7, recombinant human stem cell factor (SCF) (human, UniProt P21583 26-189); assay: ELISA on coated recombinant human SCF
T7 construct: also called huSCF; KIT-ligand
Description: as §3

[7] = target: cynomolgus monkey soluble FLT3L (cynomolgus monkey); assay: cell-based or functional assay
[8] = target: T3, human soluble FLT3L (recombinant …); assay: cell-based or functional assay; remark: listed apart in the source

T7 sequence (P21583 26-189 limits assumed): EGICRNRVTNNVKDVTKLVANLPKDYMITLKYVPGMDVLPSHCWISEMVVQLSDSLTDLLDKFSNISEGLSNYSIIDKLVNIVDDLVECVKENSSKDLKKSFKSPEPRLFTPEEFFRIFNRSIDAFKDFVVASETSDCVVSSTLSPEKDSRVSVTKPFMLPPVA

maximum occupancy (% relative to FLT3-Fc) [1]: 40%
EC50 [2]: 0.157 nM
binding result (mouse soluble FLT3L): no binding
IC50 (nM) against 0.476 nM FLT3L, ERK phosphorylation in CD133+ stem cells [3]: 187 nM
IC50 (nM) against 0.476 nM FLT3L, MEK phosphorylation in CD133+ stem cells [3]: 181 nM
EC50 [4]: 1.1 nM
maximum occupancy (% relative to FLT3-Fc) [4]: 100%
binding result [5]: no binding (tested: about 0.3 uM)
binding result [6]: no binding (tested: about 0.3 uM)
IC50 (nM), inhibition of FLT3 downregulation on RS4;11 cells [7]: 564 nM
IC50 (nM), inhibition of FLT3 downregulation on RS4;11 cells [8]: 385 nM
B1: CAT5D9 antibody (IgG1 TM format) (antibody, V domains shown)
VH: QVQLVQSGAEVKKPGSSVKVSCKISGGTFSSYALSWVRQAPGQGLEWMGGIIPVFRTASYAQKFQGRVTITVDESASTGYIELSSLKSEDTATYYCASNNYVWGSYRFWGQGTTVTVSS
VL: NFMLTQPHSVSESPGKTVTISCTRTSGNIAGYFVQWYQQRPGSSPTTVIYEDYQRPSGVPDRFSGSIDRSSNSASLTISGLKPDDEADYYCQSYDDTSQGVFGAGTKVTVLG
notes: also called clone 5D9; parental 5D9
binding result (mouse FLT3L on CHO cells): no binding (tested: x = -7.2 (x axis without title or unit))

Reference: patent US20230056815A1 (VIELA BIO, published 2023)
